# Experimental data taken from US11110182B2, “Multifunctional RNA nanoparticles and methods for treating cancer and therapeutic resistant cancer” (University of Cincinnati, priority 2016, dated 2021).
# Test system: BT474 orthotopic xenograft tumors
# Assay: Anti-tumor therapy in BT474 orthotopic xenograft breast tumor mouse model
# Type: in vivo, athymic nude mice
# Details: for tumor lung metastasis: H&E staining of whole lung
# Method: FIG. 5A) BT474 orthotopic xenograft mouse models were treated with control pRNA-HER2apt-siScram or pRNA-HER2apt-siMED1 (4 mg/Kg) once a week, in combination with vehicle or tamoxifen (TAM, 0.5 mg/mice/day) 5 days per week. Tumor sizes were measured every three days. FIG. 5B) After three weeks, mice were i.p. injected with D-luciferin, and representative in vivo images of BT474 tumors were recorded using IVIS Lumina imaging system. FIG. 5C) Average weight of the tumors excised at the end of the treatment, and FIG. 5D) the representative photos of tumors. FIG. 5E and FIG. 5F) MED1 expression in the BT474 tumors was examined using IHC staining and FIG. 5G) immunoblotting. FIG. 5H) The expression of Ki-67 in tumor tissues was analyzed using IHC staining, and FIG. 5I) the percentage of Ki-67 positive cells was counted. Scale bar: 100 μm.
# FIG. 6A) Whole lung tissues were fixed, embedded, and sectioned for H&E staining, and FIG. 6B) metastasis foci in the whole lung tissues were then counted. Arrow indicates the metastasis foci. Scale bar: 100 μm. FIG. 6C) After digesting tumor tissues with trypsin and 0.1% collagenase, tumor cells were stained for CD44 and CD24, and FIG. 6D) analyzed for CD44^+CD24^−/low stem cell population using flow cytometry. FIG. 6E) Total RNA in the tumor tissues was extracted using TRIZOL reagent, and the expression of TFF-1, FIG. 6F) c-Myc, FIG. 6G) cyclin D1, and FIG. 6H) MMP-9 were determined by real-time PCR.
# Migration and metastasis assay. The 8-μm-pore-size polycarbonate membrane, which separates the two chambers of a 6.5-mm Transwell (Costar), was coated with or without 1:8 DMEM-diluted Matrigel (Corning). Transwell assay was performed as previously described.^57 Briefly, BT474 cells were treated with pRNAs alone or together with 4-hydroxy-tamoxifen (4-OHT) for 48 h and starved with serum-free DMEM containing 0.2% BSA overnight. On the next day, cells were collected and 2×10^5 cells were seeded to the upper chamber of Transwell. The lower chamber was filled with 600 μL DMEM medium containing 10% FBS. After incubation at 37° C. for 24 h, cells on the membranes were fixed and stained with 0.1% crystal violet in 20% ethanol solution. Cells at top side of membranes were removed completely, and cells at the bottom side were examined with an Olympus SZX12 microscope and counted. • Mammosphere culture and breast cancer stem cell analyses. BT474 cells were treated with pRNAs for 48 h. Then, cells were suspended in DMEM/F12 medium supplemented with 1×B27 (Thermo Fisher), 20 ng/mL bFGF and 20 ng/mL EGF (R&D), and added into 24-well ultralow attachment plates. After treatment with or without 1 μM 4-OHT for 7 days, mammosphere formation was recorded using an Axiovert S100 TV inverted microscope (Zeiss). Xenograft tumor tissues were cut into small pieces and digested with trypsin and collagenase at 37° C. for 1 h, and tumor cells were collected and rinsed with pre-cold PBS. All cells were stained with FITC-conjugated anti-CD44 antibody and PE-conjugated anti-CD24 antibody (BD Pharmingen) in the dark on ice for 30 min. After resuspension with 0.5 mL PBS buffer, CD44^+/CD24^−/low cell population was analyzed by flow cytometry. • Orthotopic xenograft breast tumor mouse model, in vivo imaging and anti-tumor therapy. Six-week-old female athymic nude mice were purchased from Charles River Laboratories, and all animal procedures were performed under IACUC-approved protocols at the University of Cincinnati. Athymic nude mice were orthotopically injected with 1×10^7 BT474-luc cells mixed with matrigel into the fat pads of the forth pair of mammary glands. When the tumor sizes reached 100-150 mm^3, the mice were randomly divided into four groups (4/group) and intravenously (i.v.) injected with pRNAs (4 mg/Kg) once a week for three weeks. For tamoxifen treatments, 0.5 mg tamoxifen (Sigma) dissolved in sesame oil was intraperitoneally (i.p.) injected into mice 5 days a week for three weeks. […]
molecule,measurement,setting,value
"pRNA-HER2apt-siMED1: 3-WJ pRNA nanoparticle bearing a HER2-targeting RNA aptamer and two different MED1 siRNAs; strands p1 SEQ ID NO: 3, p2 SEQ ID NO: 4 (nucleic acid, 2'-F modification; third strand may lack entry; pRNA-HER2apt-siMED1, p1; pRNA-HER2apt-siMED1, p2) chain 1: GGACAGUGAAAGUGAGUCAAAGGAUCAAUCAUGGCCAAAGAUGUUACUUUGAGAGCCUU chain 2: GGCUCUCAAAGUAACAUCUAAGGCCAUGUGUAUGUGGGGGGAGGACGAUGCGGUCUGCUGUGCUUGAUAUGCCCCAGACGACUCGCCCCCCACAUACUUUGUUGAUCCAAUGACUCACUUUCACUGUCCUU",Ki-67 expression in tumor sections,IHC staining,dramatic reduction
same,expression of MED1 in tumors,IHC staining and western blot of BT474 tumors,significantly depleted
same,CD44^+CD24^−/low cancer stem cells in breast tumors,"combined with tamoxifen, flow cytometry",almost complete depletion
same,tumor lung metastasis,in combination with tamoxifen,totally eradicated
same,tumor growth,"pRNA 4 mg/Kg i.v. once a week in combination with tamoxifen 0.5 mg i.p. 5 days a week, three weeks",almost completely suppressed tumor growth
same,tumor burden,"pRNA alone, 4 mg/Kg i.v. once a week, three weeks",reduced tumor burden
same,CD44^+CD24^−/low cancer stem cells in the breast tumors,"pRNA alone, flow cytometry",significantly reduced
same,tumor lung metastasis,single agent,totally eradicated
same,tumor growth,"single agent, pRNA 4 mg/Kg i.v. once a week or tamoxifen 0.5 mg i.p. 5 days a week, three weeks",significantly inhibited tumor growth
